In publication PMC8153620, “A Novel, Easy Assay Method for Human Cysteine Sulfinic Acid Decarboxylase” (Life, 2021):

T1: human cysteine sulfinic acid decarboxylase (CSAD) (Homo sapiens, UniProt Q9Y600)
T1 construct: His6 and TEV site), tag kept (cleavage not mentioned); plasmid pNIC28-Bsa4; E. coli Rosetta(DE3); homodimer in crystal (PDB 2jis, solved by SGC)
T1 sequence (Q9Y600 1-493): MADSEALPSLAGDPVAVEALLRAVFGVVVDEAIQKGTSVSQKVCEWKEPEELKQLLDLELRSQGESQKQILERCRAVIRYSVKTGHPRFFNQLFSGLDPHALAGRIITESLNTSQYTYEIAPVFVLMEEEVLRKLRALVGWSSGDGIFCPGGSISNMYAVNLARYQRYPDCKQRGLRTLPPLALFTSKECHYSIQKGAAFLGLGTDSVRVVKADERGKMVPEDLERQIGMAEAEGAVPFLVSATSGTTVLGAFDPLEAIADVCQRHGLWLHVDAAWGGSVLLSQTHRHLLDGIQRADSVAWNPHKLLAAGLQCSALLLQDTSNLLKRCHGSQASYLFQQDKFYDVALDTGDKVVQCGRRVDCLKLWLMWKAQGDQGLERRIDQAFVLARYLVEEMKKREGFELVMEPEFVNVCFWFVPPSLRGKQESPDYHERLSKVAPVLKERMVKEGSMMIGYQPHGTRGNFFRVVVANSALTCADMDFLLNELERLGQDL

B1: human cysteine sulfinic acid decarboxylase (CSAD) (Homo sapiens) (protein)
chain: T1 sequence (Q9Y600 1-493)
notes: His6 and TEV site), tag kept (cleavage not mentioned); plasmid pNIC28-Bsa4; E. coli Rosetta(DE3); homodimer in crystal (PDB 2jis, solved by SGC)

What was measured:
[1] = target: T1, human cysteine sulfinic acid decarboxylase (CSAD); experiment: restoration of catalytic activity by equimolar PLP; absorption spectrum after dialysis; format: biochemical; conditions: covalent (Schiff base to Lys305 in PDB 2jis, not solved here); spectrum in 20 mM NaHEPES pH 7.5, 300 mM NaCl, 0.2 mM DTT, 5% glycerol
[2] = substrate: N[C@@H](CS(=O)O)C(=O)O; experiment: purified protein; format: biochemical, Homo sapiens; conditions: 20 mM potassium phosphate pH 7.2, 0.2 mM DTT, 0.1 mM EDTA, 0.06 mM PLP, about 20 °C (room temperature), 0.33 μM CSAD, CSA 0.06–1 mM

| Molecule | restoration of catalytic activity by equimolar PLP; absorption spectrum after di [1] | Km [2] [µM] | kcat [2] [s⁻¹] |
| --- | --- | --- | --- |
| Cc1ncc(COP(=O)(O)O)c(C=O)c1O [PLP, pyridoxal-5′-phosphate] | addition of exogenous PLP—in equimolar concentration with respect to the protein—restored the holo-form |  |  |
| B1 |  | 200 ± 20 | 5.6 ± 0.2 |
